# Experimental data: EP4707393A1, “DOUBLE-STRANDED SIRNA, CONJUGATE THEREOF AND USE THEREOF” (CMS Research & Development Pte. Ltd., priority 2023, dated 2024)
# Experiments:
# [1] = tested on: PHH cells; assay: Off-target assessment by RNA-sequencing in PHH cells; type: cell-based; details: vs PBS, 48 hours; for Downregulated differential genes / Total differential genes / Upregulated differential genes: DESeq2 padj ≤ 0.05 |log2FoldChange| ≥ 1.0
# Description: • 1.1 Double-stranded siRNA conjugates • 1.2 PHH cells, purchased from Research Institute for Liver Diseases(Shanghai)Co. Ltd. • 1.3 Main reagents: InvitroGRO CP Medium (Cat. No.: BIOIVT-S03316), Fetal Bovine Serum (Cat. No.: ExCellBio-FSP500), Penicillin-Streptomycin (Cat. No.: Hyclone-SV30010), TRLzol Reagent (Cat. No.: Ambion-15596018).
# The cryopreserved PHH was taken from the liquid nitrogen and thawed in a water bath at 37 °C. The fully thawed PHH was transferred to a 10% FBS InvitrogRO CP medium and blended well, and counted using a counter. The cell density was adjusted to 6 × 10^5 cells/mL.
# siRNAs were diluted with RNase-free PBS to 10 times the final concentration (for example, diluted to 1000 nM if the test concentration is 100 nM). The diluted siRNAs were then added to a collagen-coated 12-well plate at 100 µL/well, with 1 concentration point, 3 replicated wells, and blank PBS as the negative control group. PHH cells at a density of 6 × 10^5 cells/mL were added to the collagen-coated 12-well plate at 900 µL/well. The final concentrations of the test compounds were […]. The cell plates were incubated in a 5% CO2, 37 ° C incubator for 48 hours. After 48 hours, the medium was removed, 600µL of Trizol was added per well to lyse the cells, and sent to Beijing Novogene Co., Ltd. for RNA-sequencing.
# NEB Standard Library Preparation: Fragmented mRNAs were used as a template and random oligonucleotides as primers. The first strand of cDNA was synthesized in an M-MuLV reverse transcriptase system. The RNA strand was then degraded with RNaseH, and the second strand of cDNA was synthesized using a DNA polymerase I system with dNTPs as raw materials. The purified double-stranded cDNA underwent end repair, A-tailing, and adapter ligation for sequencing. The cDNA of approximately 250-300 bp was screened out by AMPure XP beads, PCR amplified, and the PCR product was purified again by AMPure XP beads to finally obtain the library. The kit used for library construction was NEBNext® Ultra ™ RNA Library Prep Kit for Illumina.
# After the library construction, quantification was primarily performed using a Qubit2.0 Fluorometer, and the library was diluted to 1.5 ng/µL. The insert size of the library was then detected using an Agilent 2100 bioanalyzer. If the insert size meets expectations, the effective concentration of the library was accurately quantified by qRT-PCR (an effective concentration of the library higher than 2nM) to ensure the quality of the library.
# After passing quality control of the library, different libraries were pooled according to the effective concentration and target output data volume for Illumina sequencing. The basic principle of sequencing is Sequencing by Synthesis. Four fluorescently labeled dNTPs, DNA polymerase, and adapter primers were added to the sequencing flow cell for amplification. As each sequencing cluster extends the complementary strand, the incorporation of each fluorescently labeled dNTP can release the corresponding fluorescence. The sequencer captures the fluorescence signal and converts the optical signals into sequencing peaks through computer software, thereby obtaining the sequence information of the test fragments.
# Experimental results were obtained through software analysis
# Differential gene analysis takes DESeq2 padj ≤ 0.05 |log2FoldChange| ≥ 1.0 as the threshold. Table 8. Differential gene statistics
# [2] = Melting temperature (Tm) by UV absorption at 260 nm; type: physicochemical; details: phosphate buffer solution; average of at least two independent measurements
# Description: The Tm value was determined by recording the change in UV absorption at 260 nm of DNA/RNA in phosphate buffer solution as the temperature increased.
# Table 6 Melting temperature (Tm) test instrument parameters
# The melting temperature (Tm) was calculated from the first derivative of the smoothed heating curve, and the reported value was the average of at least two independent measurements. Table 7 Melting temperatures (Tm) of conjugates of the present disclosure
# [3] = tested on: LPA mRNA; assay: In vivo efficacy in LPA-HDI mouse model (liver LPA mRNA); parameters: species or system BALB/c mouse; details: 3 mg/kg single subcutaneous injection, Day 14, relative to PBS blank group, 4 mice per group
# Description: The knockdown effect of the test double-stranded siRNA conjugate on the target gene LPA upon entry into the mouse is evaluated by rapid high-pressure injection of the physiological saline containing recombinant plasmid pcDNA-LPA carrying the target gene via the tail vein.
# pcDNA-LPA plasmid, BALB/c mouse, PBS (phosphate buffer), and conjugates of the present invention.
# Six-week-old female BALB/c mice were ordered and acclimated/quarantined for three days upon arrival in the animal room.
# On Day 0, the mice were randomly grouped based on body weight data. After grouping, all mice were given a single administration via subcutaneous injection, with a dose volume of 10 mL/kg. Mice in Group 1 received PBS; mice in the other groups received the conjugates (dissolved in PBS).
# On Day 13 post-administration, all mice were injected with normal saline containing the pcDNA-LPA plasmid via the tail vein within 5 seconds. The injection volume (mL) = mouse body weight (g) × 8%. The amount of plasmid injected per mouse was 10 µg.
# On Day 14 post-administration, all groups of mice were euthanized by CO2 inhalation, and 2 liver samples were collected from each mouse. Liver samples were treated overnight with RNAlater at 4 °C, then RNAlater was removed, and stored at -80 °C for detection of LPA gene expression levels.
Substance,Maximum up-regulation folds [1],Downregulated differential genes [1],Total differential genes [1],Upregulated differential genes [1],Melting temperature Tm [2] [°C],% Downregulation of LPA mRNA [3] [%]
"Z42: siRNA conjugate: sense SEQ ID NO:49, ligand D01 at 3' end of sense strand, antisense SEQ ID NO:80 (sense CAGCCCCTTATTGTTATACGA; antisense NCGTATNACAATAAGGGGCNGTT; ligand D01 at sense 3' end; listed as RNA; modified_base 1: mod_base = OTHER; note = 2'-O-methylcytidine; modified_base 2: mod_base = OTHER; note = 2'-O-methyladenosine; modified_base 3: mod_base = OTHER; note = 2'-O-methylguanosine; modified_base 4..7: mod_base = OTHER; note = 2'-O-me; note = n is B33; note = 2'-deoxycytidine; modified_base 4: mod_base = OTHER; note = 2'-O-methyluridine; m)",1.9,0,4,4,67.75,78.0
"Z46: siRNA conjugate: sense SEQ ID NO:43, ligand D01 at 3' end of sense strand, antisense SEQ ID NO:66 (sense CAGCCCCTTATTGTTANACGA; antisense TCTCGTATNACAATAAGGGGCTG; ligand D01 at sense 3' end; listed as RNA; modified_base 1: mod_base = OTHER; note = 2'-O-methylcytidine; modified_base 2: mod_base = OTHER; note = 2'-O-methyladenosine; modified_base 3: mod_base = OTHER; note = 2'-O-methylguanosine; modified_base 4..7: mod_base = OTHER; note = 2'-O-me; note = 2'-O-methyluridine; modified_base 4: mod_base = OTHER; note = 2'-fluorocytidine; modified_base 5: mod_base = OTHER; note = 2'-O-methylg)",–,0,0,0,76.75,89.0
